# Laboratory results reported in the supplement of paper PMC9732359.
# ± gives the uncertainty stated by the source.
# Experiment: protein stability index of a GFP-peptide fusion (yeast GPS) (PSI 1-4); higher = more stable; sorted into four equal gates, so the index is relative within each strain
# Procedure, shortened: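 Yeast carrying a pooled library were grown to mid-log phase in leucine-free medium. Each library plasmid expresses Cherry and has a tiled 17-residue yeast protein peptide fused downstream of GFP. Cells were sorted into four equal gates by GFP/Cherry ratio, and plasmids from each gate were PCR-amplified, Illumina-sequenced and assigned to strains by barcode. Summing, across gates, the read frequency times the gate number gave each peptide's protein stability index.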
Sequence,protein stability index (doa10∆),protein stability index (pdr5∆),protein stability index (san1∆),protein stability index (ubr1∆)
QDRQQLLPLVVSNISCL [ECM29],1.38 ± 0.046,1.38 ± 0.036,1.29 ± 0.074,1.29 ± 0.034
QDSILIIYPRSQTTLVQ [ARP9],2.6 ± 0.16,1.81 ± 0.064,2.23 ± 0.079,2.46 ± 0.067
QDVDFYKNLDRGFSKDL [RRP6],3.44 ± 0.13,3.75 ± 0.15,3.25 ± 0.074,3.23 ± 0.097
QEAVNSLKGYKIENSVQ [CSI1],3.2 ± 0.13,3.29 ± 0.079,3.32 ± 0.051,3.39 ± 0.073
QEESFSLNLGIGIVEIA [SRB8],1.33 ± 0.11,1.79 ± 0.088,2.08 ± 0.29,1.89 ± 0.094
QEGMNECPGHFGHIDLA [RPO21],3.27 ± 0.21,3.25 ± 0.098,3.33 ± 0.074,3.29 ± 0.09
QELISKAFTNWNKRDFM [ISW2],2.27 ± 0.14,3.55 ± 0.23,1.59 ± 0.15,2.89 ± 0.25
QELKADSPFSLICQNNL [SRP72],2.53 ± 0.078,2.56 ± 0.064,2.66 ± 0.054,2.85 ± 0.049
QESSSLRLLEVTDDDRL [POP8],2.1 ± 0.068,2.08 ± 0.078,2.5 ± 0.12,1.65 ± 0.068
QEYAIEMKIGSIESKLE [SMC1],2.84 ± 0.091,3.34 ± 0.12,2.74 ± 0.1,2.94 ± 0.093
QFGNACISLSGVPNYLV [SSN2],1.59 ± 0.077,2.05 ± 0.093,2.37 ± 0.21,2.21 ± 0.069
QFIKSNFEKILLTCYEL [SRB8],–,3 ± 0.23,–,–
QFKKLTHAQRTGLSQIP [PRP8],2.05 ± 0.11,2.46 ± 0.1,2.12 ± 0.14,2.53 ± 0.12
QFLYEKHYKNIPRNSPL [RPC82],1.92 ± 0.068,1.9 ± 0.056,1.68 ± 0.066,2.08 ± 0.035
QFSESTHNDIDSTAVAL [YJL039C/NUP192],2.76 ± 0.098,2.5 ± 0.2,2.71 ± 0.087,3.16 ± 0.071
QFSQLNDPNAAVNMTQN [MED6],2.71 ± 0.089,2.91 ± 0.1,2.86 ± 0.039,2.62 ± 0.06
QFTRFFLLVPSKQVQVS [ECM29],1.27 ± 0.075,1.18 ± 0.061,1.19 ± 0.11,1.21 ± 0.072
QFVSKLVDNLNAEVVAG [BRR2],2.25 ± 0.042,2.25 ± 0.049,2.22 ± 0.05,2.19 ± 0.041
QGAKTYLERTLDTFIKI [PRE5],3.03 ± 0.081,3.18 ± 0.068,2.81 ± 0.067,3.21 ± 0.058
QGIIYAKVNRPAKIVNF [RPN5],2.61 ± 0.13,2.72 ± 0.15,2.37 ± 0.12,2.4 ± 0.16
QGNPKKRPGKLSDYIPG [CYT1],3.17 ± 0.066,3.24 ± 0.067,3.23 ± 0.044,3.17 ± 0.032
QGTGKKTASLGNSKDDL [ISW2],3.02 ± 0.12,2.9 ± 0.18,3.41 ± 0.057,3.42 ± 0.14
QHDKMVDKIFEKVNNNA [SWI1],3.19 ± 0.15,2.73 ± 0.081,2.87 ± 0.067,2.99 ± 0.041
QHEQQKQQEQLEQQKQP [YMR153W/NUP53],3.37 ± 0.056,3.35 ± 0.057,3.04 ± 0.049,3.15 ± 0.046
QHTTESDNISRKYEISF [RPB2],3.16 ± 0.11,3.17 ± 0.088,2.92 ± 0.098,3.2 ± 0.11
QHYKNNSISSQPASYHS [SSN2],2.56 ± 0.058,3.03 ± 0.067,3.05 ± 0.065,2.78 ± 0.057

Sequence,protein stability index (doa10∆),protein stability index (pdr5∆),protein stability index (san1∆),protein stability index (ubr1∆)
QIAKFVVGLGERVSPTD [RPT1],2.62 ± 0.099,1.33 ± 0.04,2.05 ± 0.13,1.38 ± 0.051
QIIFGVVEKKTVGSSNG [RPO21],1.66 ± 0.11,1.66 ± 0.098,1.66 ± 0.19,1.6 ± 0.066
QIRDVMERFSVLCNSNI [RRP6],2.41 ± 0.11,2.82 ± 0.11,2.18 ± 0.15,2.38 ± 0.084
QITPTVPHSHPSDMVIP [SNF12],2.69 ± 0.044,2.59 ± 0.045,2.63 ± 0.046,2.59 ± 0.034
QIVPYIEKLTDGHLRAP [BRR2],3.04 ± 0.052,3.1 ± 0.043,3.12 ± 0.037,3.15 ± 0.051
QKIRNSEGISEATREVF [ITC1],3.11 ± 0.2,3.47 ± 0.19,2.81 ± 0.15,–
QKKARTILQHLSEAWRC [PRP8],1.96 ± 0.11,1.8 ± 0.097,2.28 ± 0.12,2.55 ± 0.16
QKLFVQVSNFAPQVYII [GAL11],2.62 ± 0.077,2.45 ± 0.061,2.86 ± 0.065,2.32 ± 0.049
QKLPQYIIQGSNTNDNI [RGR1],3.14 ± 0.1,3.09 ± 0.098,2.48 ± 0.18,3.25 ± 0.091
QKLWLLECQLFPQGLNI [SSN8],2.16 ± 0.068,1.92 ± 0.06,1.66 ± 0.13,2.11 ± 0.076
QKMAELEAARSEKQNDE [PRP8],1.75 ± 0.11,1.76 ± 0.085,2.23 ± 0.26,1.8 ± 0.09
QKNFMDQFQWILRKPGK [RRI2],2.42 ± 0.14,2.66 ± 0.12,2.67 ± 0.15,2.49 ± 0.091
QKQWDDIAFVLNNLPYK [YCS4],2.48 ± 0.077,3.09 ± 0.082,2.97 ± 0.11,3.18 ± 0.086
QKYVGEGARMVRELFEM [RPT1],–,–,–,2.92 ± 0.24
QKYWESMRIQILRRQAI [GAL11],1.34 ± 0.091,2.25 ± 0.087,1.65 ± 0.16,2.1 ± 0.058
QLAQIRQFLKANKTNLI [YML103C/NUP188],2.65 ± 0.057,2.81 ± 0.068,2.86 ± 0.049,2.93 ± 0.04
QLELRQLNASISLIPEL [RRI2],2.55 ± 0.062,2.58 ± 0.069,2.42 ± 0.063,2.85 ± 0.043
QLETLTGSIRHRLKLCK [CSE2],3.32 ± 0.26,3.05 ± 0.17,–,2.97 ± 0.21
QLFRTNKVQIMIATNVA [PRP28],1.5 ± 0.055,1.43 ± 0.064,1.48 ± 0.081,1.7 ± 0.036
QLGYIENSFYKKEASKT [POP1],2.27 ± 0.061,2.43 ± 0.058,2.43 ± 0.056,2.39 ± 0.044
QLIGSNIELHSLYTSRE [PUP1],3.33 ± 0.25,3.33 ± 0.2,3.34 ± 0.26,2.91 ± 0.2
QLIKVAVHNGGRKHVAA [RPL9A],2.47 ± 0.091,2.85 ± 0.087,2.66 ± 0.097,2.72 ± 0.03
QLKIQNRQAAASVVPSA [RPL12A],1.82 ± 0.035,2.48 ± 0.042,2.05 ± 0.051,2.08 ± 0.03
QLKNVQLDSYLVNGFSQ [MED2],2.49 ± 0.062,2.68 ± 0.088,2.24 ± 0.11,2.49 ± 0.042
QLNASISLIPELSVVLS [RRI2],2.67 ± 0.064,2.96 ± 0.06,2.98 ± 0.044,2.73 ± 0.039
QLQQQPQMQCALQNLSQ [YGL172W/NUP49],2.19 ± 0.12,2.06 ± 0.09,2.42 ± 0.11,2.18 ± 0.077
